Measurements published in PMC11060673.
pKd: −log10 of the molar value.

Biological target: His-LHP1 (recombinant Prunus mume Like Heterochromatin Protein 1) (Prunus mume (Japanese apricot))
Experiment: SPR; BIAcore X-100; PmLHP1 immobilized on a CM5 sensor chip by amine coupling; target protein diluted in a gradient; steady-state affinity model

pKd: 4.69
Substance: Gst-AGL24 (recombinant Prunus mume AGAMOUS-like 24) (natural protein)
